Among the data in publication PMC6249252, “COMP and TSP-4 interact specifically with the novel GXKGHR motif only found in fibrillar collagens” (Scientific Reports, 2018) are Kd values, retold here.

Test in all cases: ELISA; collagen model peptide or collagen XI coated; COMP or TSP-4 at indicated concentrations in TBS-T with 0.25% BSA, 1 h, room temperature; detected with anti-COMP or anti-TSP-4 antibody; four-parameter logistic fit; apparent KD
(In general: ELISA stands for enzyme-linked immunosorbent assay.)

Assay [1] has as its target GVKGHR foldon collagen model peptide (minimal binding site) (not stated | bacteriophage T4).
Assay [2] has as its target … foldon collagen model peptide (valine to proline) (not stated | bacteriophage T4).
In assay [3] the target is … foldon collagen model peptide (histidine to proline) (not stated | bacteriophage T4).

Sequence of cartilage oligomeric matrix protein (COMP), wild type, pentameric (P49747 21-757): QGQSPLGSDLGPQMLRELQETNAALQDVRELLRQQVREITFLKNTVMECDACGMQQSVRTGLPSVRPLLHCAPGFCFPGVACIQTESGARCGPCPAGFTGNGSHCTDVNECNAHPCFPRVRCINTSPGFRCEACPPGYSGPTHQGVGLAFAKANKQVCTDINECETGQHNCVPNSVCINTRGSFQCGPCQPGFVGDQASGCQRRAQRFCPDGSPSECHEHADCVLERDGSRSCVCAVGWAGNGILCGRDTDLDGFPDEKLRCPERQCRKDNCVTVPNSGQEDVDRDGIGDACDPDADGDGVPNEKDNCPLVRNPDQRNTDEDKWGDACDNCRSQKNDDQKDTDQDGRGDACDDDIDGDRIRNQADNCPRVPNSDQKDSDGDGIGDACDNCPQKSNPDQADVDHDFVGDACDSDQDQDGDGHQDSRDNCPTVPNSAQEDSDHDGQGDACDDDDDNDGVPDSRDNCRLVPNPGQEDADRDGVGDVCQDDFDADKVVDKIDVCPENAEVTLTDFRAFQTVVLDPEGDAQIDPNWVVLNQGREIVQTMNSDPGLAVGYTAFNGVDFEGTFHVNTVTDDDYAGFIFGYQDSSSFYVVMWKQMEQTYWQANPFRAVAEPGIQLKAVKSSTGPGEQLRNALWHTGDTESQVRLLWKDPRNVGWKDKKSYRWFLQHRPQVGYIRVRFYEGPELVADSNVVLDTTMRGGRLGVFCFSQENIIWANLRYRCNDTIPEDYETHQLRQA
Sequence of thrombospondin-4 (TSP-4) (P35443 27-961): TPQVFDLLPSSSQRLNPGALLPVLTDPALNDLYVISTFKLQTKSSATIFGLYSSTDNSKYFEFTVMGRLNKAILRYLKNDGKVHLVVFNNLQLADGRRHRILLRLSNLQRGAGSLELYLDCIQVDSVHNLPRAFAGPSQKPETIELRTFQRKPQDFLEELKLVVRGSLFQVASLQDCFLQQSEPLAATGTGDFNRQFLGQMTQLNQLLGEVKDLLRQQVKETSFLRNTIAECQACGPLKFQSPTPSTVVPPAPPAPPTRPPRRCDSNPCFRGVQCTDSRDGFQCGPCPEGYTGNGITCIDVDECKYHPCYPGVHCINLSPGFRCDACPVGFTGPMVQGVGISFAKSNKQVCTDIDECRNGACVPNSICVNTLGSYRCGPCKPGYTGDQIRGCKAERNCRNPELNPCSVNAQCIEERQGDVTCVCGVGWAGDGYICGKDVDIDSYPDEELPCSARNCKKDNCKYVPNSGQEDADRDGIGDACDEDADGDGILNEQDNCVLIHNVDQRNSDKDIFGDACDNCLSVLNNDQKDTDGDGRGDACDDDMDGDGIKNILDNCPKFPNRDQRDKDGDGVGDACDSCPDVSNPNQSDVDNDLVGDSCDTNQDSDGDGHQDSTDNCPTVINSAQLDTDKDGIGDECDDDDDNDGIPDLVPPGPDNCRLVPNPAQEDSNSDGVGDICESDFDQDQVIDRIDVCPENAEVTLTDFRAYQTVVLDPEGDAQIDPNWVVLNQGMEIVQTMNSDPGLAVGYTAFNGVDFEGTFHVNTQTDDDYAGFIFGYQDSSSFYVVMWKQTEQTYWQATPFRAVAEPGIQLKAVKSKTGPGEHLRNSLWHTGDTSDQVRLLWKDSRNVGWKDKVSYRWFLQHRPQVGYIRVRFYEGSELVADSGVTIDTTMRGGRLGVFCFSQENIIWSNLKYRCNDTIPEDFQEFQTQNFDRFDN

With “cartilage oligomeric matrix protein (COMP), wild type, pentameric (from UniProt P49747 21-757) (natural protein)”, the results for the Kd in assay [1], in assay [2] and in assay [3] were 1.61 nM, 2.26 nM and 496 nM, respectively.
“thrombospondin-4 (TSP-4) (from UniProt P35443 27-961) (natural protein)”: the Kd in assay [1] was 0.56 nM.
